From paper PMC3408433, “Selective Cytotoxicity of Amidinopiperidine Based Compounds Towards Burkitt’s Lymphoma Cells Involves Proteasome Inhibition” (PLoS ONE, 2012) come the findings set out here.

Common to all, as to assay type: biochemical
Holding throughout (details): other: substrate on purified human 20S proteasome; pH 8.0; 37.0 °C

Substrate in data set [1]: Cc1cc(=O)oc2cc(NC(=O)[C@H](CCCNC(=N)N)NC(=O)CNC(=O)[C@@H](NC(=O)c3ccccc3)C(C)C)ccc12
Description: Proteasome activity measurement, trypsin-like.
Description: (§1) Suc-Leu-Leu-Val-Tyr-AMC, Bz-Val-Gly-Arg-AMC and Z-Leu-Leu-Glu-AMC (Bachem, Bubendorf, Switzerland) were used for the chymotrypsin-like, trypsin-like and caspase-like activites, respectively. Assay buffer consisted of TE buffer (20 mM Tris (pH = 8.0), 0.5 mM EDTA, 0.03% SDS). Substrate hydrolysis was continuously monitored at 37°C with an automated microplate reader (Tecan Safire^2). Measured fluorescence values (RFU) were plotted versus time with nonlinear regression to fit a Michaelis-Menten plot.
(§2) For the Ki determination, 25 µL of substrate at three concentrations and 25 µL of inhibitor of interest also at three different concentrations were added to the wells of a white microplate. The reaction was initiated with 50 µL of the enzyme in the assay buffer. Flourescence of the AMC release was continuously monitored at 420 nm with 320 nm excitation.
(§3) Km and Ki were calculated using SigmaPlot 11 (Enzyme Kinetics Module 1.3) and are presented as the mean of three independent experiments.

Substrate in data set [2]: Cc1cc(=O)oc2cc(NC(=O)[C@H](Cc3ccc(O)cc3)NC(=O)[C@@H](NC(=O)[C@H](CC(C)C)NC(=O)[C@H](CC(C)C)NC(=O)CCC(=O)O)C(C)C)ccc12
The data set is described as follows: Proteasome activity measurement, chymotrypsin-like.
Description: as §1, §2, §3

Substrate in data set [3]: Cc1cc(=O)oc2cc(NC(=O)[C@H](CCC(=O)O)NC(=O)[C@H](CC(C)C)NC(=O)[C@H](CC(C)C)NC(=O)OCc3ccccc3)ccc12
Description: Proteasome activity measurement, caspase-like.
Description: as §1, §2, §3

B1: trypsin-like activity of human 20S proteasome (Homo sapiens) (protein)
chain: TTIAGVVYKDGIVLGADTRATEGMVVADKNCSKIHFISPNIYCCGAGTAADTDMTTQLISSNLELHSLSTGRLPRVVTANRMLKQMLFRYQGYIGAALVLGGVDVTGPHLYSIYPHGSTDKLPYVTMGSGSLAAMAVFEDKFRPDMEEEEAKNLVSEAIAAGIFNDLGSGSNIDLCVISKNKLDFLRPYTVPNKKGTRLGRYRCEKGTTAVLTEKITPLEIEVLEETVQTMDTS
notes: purchased Boston Biochem, Inc
A word on the Km: it is the substrate concentration at which the rate is half of its maximum. With B1, the Michaelis-Menten constant (Km) in data set [1] was 44 ± 5 µM.

B2: chymotrypsin-like activity of human 20S proteasome (Homo sapiens) (protein)
chain: TTTLAFKFRHGVIVAADSRATAGAYIASQTVKKVIEINPYLLGTMAGGAADCSFWERLLARQCRIYELRNKERISVAAASKLLANMVYQYKGMGLSMGTMICGWDKRGPGLYYVDSEGNRISGATFSVGSGSVYAYGVMDRGYSYDLEVEQAYDLARRAIYQATYRDAYSGGAVNLYHVREDGWIRVSSDNVADLHEKYSGSTP
notes: purchased Boston Biochem, Inc
For the protein B2, the Michaelis constant (Km) in data set [2] was 100 ± 12 µM.

B3: caspase-like activity of human 20S proteasome (Homo sapiens) (protein)
chain: TTIMAVQFDGGVVLGADSRTTTGSYIANRVTDKLTPIHDRIFCCRSGSAADTQAVADAVTYQLGFHSIELNEPPLVHTAASLFKEMCYRYREDLMAGIIIAGWDPQEGGQVYSVPMGGMMVRQSFAIGGSGSSYIYGYVDATYREGMTKEECLQFTANALALAMERDGSSGGVIRLAAIAESGVERQVLLGDQIPKFAVATLPPA
notes: purchased Boston Biochem, Inc
B3: the Km in data set [3] is 37 ± 9 µM.
